Numbering of substitutions follows the chain as printed.
Legend:
Rx1(1–489)WT = molecular target: T1, Rx1(1–489)WT (Solanum tuberosum, UniProt Q9XGF5); assay: time-resolved FRET of DNA bending; assay type: biochemical; conditions: 20-bp end-labelled dsDNA (50 nM), 1.5 uM protein, 60 mM NaCl, room temperature; activator of DNA bending, P-loop dependent
T1 construct: gene rx; CC-NB-ARC region, residues 1-489, LRR domain absent; pET32c, hexahistidine tag
T1 sequence (Q9XGF5 1-489): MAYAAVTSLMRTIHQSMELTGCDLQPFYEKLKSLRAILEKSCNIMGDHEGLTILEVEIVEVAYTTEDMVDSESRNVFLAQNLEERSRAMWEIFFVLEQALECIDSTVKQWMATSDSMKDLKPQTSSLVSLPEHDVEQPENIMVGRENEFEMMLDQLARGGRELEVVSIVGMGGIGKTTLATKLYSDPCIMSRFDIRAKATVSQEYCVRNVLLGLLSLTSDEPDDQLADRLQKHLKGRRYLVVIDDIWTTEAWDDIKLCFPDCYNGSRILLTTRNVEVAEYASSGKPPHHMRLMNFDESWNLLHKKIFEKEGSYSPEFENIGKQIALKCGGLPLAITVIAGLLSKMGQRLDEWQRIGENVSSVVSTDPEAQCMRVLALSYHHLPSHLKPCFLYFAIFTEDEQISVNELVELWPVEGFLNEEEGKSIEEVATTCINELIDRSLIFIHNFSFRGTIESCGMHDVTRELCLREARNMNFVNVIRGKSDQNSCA

Orc1-1;Orc1-3 = molecular target: T2, Orc1-1;Orc1-3 (Sulfolobus solfataricus;Sulfolobus …, UniProt Q980N4;Q97WM8 1-397;1-394, |); assay: P1 nuclease sensitivity; sensitivity indistinguishable from Rx1(1-489)WT; EMSA: 0.15 nM 32P nucleic acid, 20 mM Tris-HCl pH 8.0, 60 mM NaCl, 2 mM EDTA, 1 mM DTT, 10% glycerol, 0.1 mg/ml BSA, 20 min on ice; FRET: 1.5 uM protein, 50 nM; conditions: protein: recombinant;recombinant; tags: ;; copies: 1;1; label: 32P 5' end of strand 1; blunt
T2 sequence 1: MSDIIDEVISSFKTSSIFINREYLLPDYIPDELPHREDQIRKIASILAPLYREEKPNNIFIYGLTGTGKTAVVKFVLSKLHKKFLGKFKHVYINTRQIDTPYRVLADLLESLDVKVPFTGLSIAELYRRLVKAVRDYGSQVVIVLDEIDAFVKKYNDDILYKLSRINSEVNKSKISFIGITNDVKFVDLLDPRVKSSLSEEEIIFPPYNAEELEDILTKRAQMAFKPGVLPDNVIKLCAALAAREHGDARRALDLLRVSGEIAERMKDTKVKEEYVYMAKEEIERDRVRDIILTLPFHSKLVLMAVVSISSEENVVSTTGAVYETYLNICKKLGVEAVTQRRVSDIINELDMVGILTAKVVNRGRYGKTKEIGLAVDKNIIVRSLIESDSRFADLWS
T2 sequence 2: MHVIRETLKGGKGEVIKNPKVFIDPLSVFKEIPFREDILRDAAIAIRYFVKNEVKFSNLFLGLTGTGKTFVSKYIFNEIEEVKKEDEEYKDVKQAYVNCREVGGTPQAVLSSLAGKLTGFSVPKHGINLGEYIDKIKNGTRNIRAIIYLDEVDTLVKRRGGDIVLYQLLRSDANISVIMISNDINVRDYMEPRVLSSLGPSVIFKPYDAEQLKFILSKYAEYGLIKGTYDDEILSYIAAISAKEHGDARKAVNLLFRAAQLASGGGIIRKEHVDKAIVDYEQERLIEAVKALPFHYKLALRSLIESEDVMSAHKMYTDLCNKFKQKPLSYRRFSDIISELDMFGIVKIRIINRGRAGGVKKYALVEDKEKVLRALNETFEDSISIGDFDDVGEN

[1] = molecular target: T3, Rx1(1-489) WT (CC-NB-ARC) (potato (introgressed from Solanum …, UniProt Q9XGF5 1-489)); assay: P1 nuclease sensitivity; no nucleotide; local melting; EMSA: 0.15 nM 32P nucleic acid, 20 mM Tris-HCl pH 8.0, 60 mM NaCl, 2 mM EDTA, 1 mM DTT, 10% glycerol, 0.1 mg/ml BSA, 20 min on ice; FRET: 1.5 uM protein, 50 nM; conditions: protein: recombinant; tags: His6 (pET32c); label: 32P 5' end of strand 1; blunt
T3 sequence: T1 sequence (Q9XGF5 1-489)

[2] = molecular target: T3, Rx1(1-489) WT (CC-NB-ARC); assay: time-resolved FRET (bending); no nucleotide; bend angle 42 degrees; EMSA: 0.15 nM 32P nucleic acid, 20 mM Tris-HCl pH 8.0, 60 mM NaCl, 2 mM EDTA, 1 mM DTT, 10% glycerol, 0.1 mg/ml BSA, 20 min on ice; FRET: 1.5 uM protein, 50 nM; conditions: protein: recombinant; tags: His6 (pET32c); label: fluorescein donor and tetramethylrhodamine acceptor, end labels; blunt
Rx1(1-489) K176R = molecular target: T4, Rx1(1-489) K176R (potato (introgressed from Solanum …, UniProt Q9XGF5 1-489, K176R)); assay: time-resolved FRET (bending); no nucleotide; bends similarly to WT; EMSA: 0.15 nM 32P nucleic acid, 20 mM Tris-HCl pH 8.0, 60 mM NaCl, 2 mM EDTA, 1 mM DTT, 10% glycerol, 0.1 mg/ml BSA, 20 min on ice; FRET: 1.5 uM protein, 50 nM; conditions: protein: recombinant; tags: His6 (pET32c); label: fluorescein donor and tetramethylrhodamine acceptor, end labels; blunt
T4 sequence: T1 sequence (Q9XGF5 1-489) with K176R

[3] = molecular target: T3, Rx1(1-489) WT (CC-NB-ARC); assay: EMSA; affinity similar to dsDNA; Kd in Table 1 not in material; EMSA: 0.15 nM 32P nucleic acid, 20 mM Tris-HCl pH 8.0, 60 mM NaCl, 2 mM EDTA, 1 mM DTT, 10% glycerol, 0.1 mg/ml BSA, 20 min on ice; FRET: 1.5 uM protein, 50 nM; conditions: protein: recombinant; tags: His6 (pET32c); label: 32P 5' end; single strand
[4] = molecular target: T3, Rx1(1-489) WT (CC-NB-ARC); assay: EMSA; apparent Kd in Table 1 (values not in material); text: submicromolar; EMSA: 0.15 nM 32P nucleic acid, 20 mM Tris-HCl pH 8.0, 60 mM NaCl, 2 mM EDTA, 1 mM DTT, 10% glycerol, 0.1 mg/ml BSA, 20 min on ice; FRET: 1.5 uM protein, 50 nM; conditions: protein: recombinant; tags: His6 (pET32c); label: 32P 5' end; blunt
[5] = molecular target: T3, Rx1(1-489) WT (CC-NB-ARC); assay: EMSA; higher affinity than dsDNA or ssRNA; Kd in Table 1 not in material; EMSA: 0.15 nM 32P nucleic acid, 20 mM Tris-HCl pH 8.0, 60 mM NaCl, 2 mM EDTA, 1 mM DTT, 10% glycerol, 0.1 mg/ml BSA, 20 min on ice; FRET: 1.5 uM protein, 50 nM; conditions: protein: recombinant; tags: His6 (pET32c); label: 32P 5' end; single strand
[6] = molecular target: T3, Rx1(1-489) WT (CC-NB-ARC); assay: EMSA; higher affinity than F12-ds/ss; EMSA: 0.15 nM 32P nucleic acid, 20 mM Tris-HCl pH 8.0, 60 mM NaCl, 2 mM EDTA, 1 mM DTT, 10% glycerol, 0.1 mg/ml BSA, 20 min on ice; FRET: 1.5 uM protein, 50 nM; conditions: protein: recombinant; tags: His6 (pET32c); label: 32P 5' end of strand 1; fork 1:2, two single-stranded arms

Nc1ncnc2c1ncn2[C@@H]1O[C@H](COP(=O)(O)OP(=O)(O)OP(=O)(O)O)[C@@H](O)[C@H]1O [ATP]
time-resolved FRET of DNA bending (Rx1(1–489)WT): Notably ATP, but not ADP, strongly increased the contribution of the 129-ps lifetime

B1: C3/mORB dual site of oriC2 (dsDNA)
DNA 1: CTCAATACAATTGTCTCTGTGTAAATTTCCTACGTTTCATCTGAAAATCTAGCTATTAGAGCTTGGTTTA
DNA 2: TAAACCAAGCTCTAATAGCTAGATTTTCAGATGAAACGTAGGAAATTTACACAGAGACAATTGTATTGAG
binding result (Orc1-1;Orc1-3): binds
binding result [1]: binds

B2: 20-bp FRET duplex (dsDNA)
DNA 1: TGGGTCAACGTGGGCAAAGA
DNA 2: TCTTTGCCCACGTTGACCCA
binding result [2]: binds
binding result (Rx1(1-489) K176R): binds

UGGGUCAACGUGGGCAAAGAUGUCCUAGCAAUGUAAUCGUCUAUGACGUU (ssRNA) [SS1 ssRNA]
binding result [3]: binds

B3: SS1/SS2 dsDNA (dsDNA)
DNA 1: TGGGTCAACGTGGGCAAAGATGTCCTAGCAATGTAATCGTCTATGACGTT
DNA 2: AACGTCATAGACGATTACATTGCTAGGACATCTTTGCCCACGTTGACCCA
binding result [4]: binds

TGGGTCAACGTGGGCAAAGATGTCCTAGCAATGTAATCGTCTATGACGTT (ssDNA) [SS1 ssDNA]
binding result [5]: binds

B4: F12-ss/ss (structured_DNA)
DNA 1: GACGCTGCCGAATTCTGGCTTGCTAGGACATCTTTGCCCACGTTGACCC
DNA 2: B3 DNA 1
binding result [6]: binds

Reference: article PMC4599002, “The Potato Nucleotide-binding Leucine-rich Repeat (NLR) Immune Receptor Rx1 Is a Pathogen-dependent DNA-deforming Protein” (The Journal of Biological Chemistry, 2015)
